Results from paper PMC3293909.

Key:
[1] = molecular target: T1, ephrin B1 (mouse (endogenous in primary osteoclasts))
T1 sequence (P52795 whole entry, looked up): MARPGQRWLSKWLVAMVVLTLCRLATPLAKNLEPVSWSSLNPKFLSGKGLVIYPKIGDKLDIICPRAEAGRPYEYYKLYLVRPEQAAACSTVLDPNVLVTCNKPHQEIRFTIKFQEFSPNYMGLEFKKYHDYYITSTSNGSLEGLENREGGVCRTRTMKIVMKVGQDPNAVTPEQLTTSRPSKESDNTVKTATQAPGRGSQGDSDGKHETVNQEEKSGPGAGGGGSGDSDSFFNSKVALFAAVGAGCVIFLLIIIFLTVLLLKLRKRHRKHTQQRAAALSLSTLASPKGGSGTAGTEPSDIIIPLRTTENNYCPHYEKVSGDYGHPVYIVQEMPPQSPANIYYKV

[2] = molecular target: T1, ephrin B1 (mouse (endogenous in primary osteoclasts)); remark: listed apart in the source

B1: clustered soluble recombinant EphB2-Fc (Fc fusion)
chain: VEETLMDSTTATAELGWMVHPPSGWEEVSGYDENMNTIRTYQVCNVFESSQNNWLRTKFIRRRGAHRIHVEMKFSVRDCSSIPSVPGSCKETFNLYYYEADFDLATKTFPNWMENPWVKVDTIAADESFSQVDLGGRVMKINTEVRSFGPVSRNGFYLAFQDYGGCMSLIAVRVFYRKCPRIIQNGAIFQETLSGAESTSLVAARGSCIANAEEVDVPIKLYCNGDGEWLVPIGRCMCKAGFEAVENGTVCRGCPSGTFKANQGDEACTHCPINSRTTSEGATNCVCRNGYYRADLDPLDMPCTTIPSAPQAVISSVNETSLMLEWTPPRDSGGREDLVYNIICKSCGSGRGACTRCGDNVQYAPRQLGLTEPRIYISDLLAHTQYTFEIQAVNGVTDQSPFSPQFASVNITTNQAAPSAVSIMHQVSRTVDSITLSWSQPDQPNGVILDYELQYYEKELSEYNATAIKSPTNTVTVQGLKAGAIYVFQVRARTVAGYGRYSGKMYFQTMTEAEYQTSIKEKLPL
B1 was tested, and the inhibition of the area of bone resorption pits formed by WT osteoclast precursors on bone slices by EphB2-Fc against control Fc; no significant effect on ephrin B1 deficient cells [1] was 54%, the suppression of multinucleated cell (MNC) formation from WT splenocyte precursors by EphB2-Fc (2 µg/ml) against control Fc; little effect on ephrin B1 deficient cells [1] was 49.8% and the inhibition of NFATc1 mRNA (real-time RT-PCR) in WT osteoclasts treated with EphB2-Fc against control Fc; not in ephrin B1 deficient cells [2] was 67%. The inhibition of cathepsin K mRNA (real-time RT-PCR) in WT osteoclasts treated with EphB2-Fc against control Fc; not in ephrin B1 deficient cells [2] was 60% and the reduction of TRAP mRNA (real-time RT-PCR) in differentiated WT osteoclasts treated with soluble EphB2-Fc for 4 days against control Fc [2] was 62%.
